Assay results taken from the DeepSol protein solubility set.

Test: soluble on expression in E. coli; label from the status in PepcDB or PDB records

Sequence | soluble on expression in E. coli
STSTFNPRECKLSKQEGQNYGFFLRIEKDTEGHLVRVVEKCSPAEKAGLQDGDRVLRINGVFVDKEEHMQVVDLVRKSGNSVTLLVLDGDSYEKAVKTRVDLKELGQSQKEQGLSDNILSPVMNGGVQTWTQPRLCYLVKEGGSYGFSLKTVQGKKGVYMTDITPQGVAMRAGVLADDHLIEVNGENVEDASHEEVVEKVKKSGSRVMFLLVDKETDKRHVEQKIQFKRETASLKLLPHQPRIVEMKKGSNGYGFYLRAGSEQKGQIIKDIDSGSPAEEAGLKNNDLVVAVNGESVETLDHDSVVEMIRKGGDQTSLLVVDKETDNMYRLAHFSPFLYYQSQELPNGSVKEAPAPTPTSLEVSSPPDTTEEVDHKPKLCRLAKGENGYGFHLNAIRGLPGSFIKEVQKGGPADLAGLEDEDVIIEVNGVNVLDEPYEKVVDRIQSSGKNVTLLVCGKKAYDYFQAKKIPIVSSLADPLDTPPDSKEGIVVESNHDSHMAKERAHSTASHSSSNSEDTEM | soluble
STWTPRNRSEDEEEDENIDLEKNDDDEPNKPTDKGDSTDTEADHKLINPGEIPCDRFKDETHSKDLDPPLTDSELKEGEERTDLLAEQAKPTTSSPSVLQRGSDLITQEKPSEPGHAASTGNSNVTSVIHSPPSAPKPKLWSLAEIATSSDRCKGSSEASQAAGLSQSTVIASAASPTRSSPQCPLPNNTVLSRPIYYTSPFYPGYTNYSTFGHLHSSHGTNTSSTAHFNGLSQTVLNRAEALVRESKVRSQTQVDLCKDSPYELKKGMSNI | not soluble
SVAADSAATESLGRIGSLSQVSGVLGCQWGDEGKGKLVDILAQHFDIVARCQGGANAGHTIYNSEGKKFALHLVPSGILNEDTTCVIGNGVVVHLPGLFKEIDGLESNGVSCKGRILVSDRAHLLFDFHQEVDGLRESELAKSFIGTTKRGIGPAYSSKVIRNGIRVGDLRHMDTLPQKLDLLLSDAAARFQGFKYTPEMLREEVEAYKRYADRLEPYITDTVHFINDSISQKKKVLVEGGQATMLDIDFGTYPFVTSSSPSAGGICTGLGIAPSVVGDLIGVVKAYTTRVGSGPFPTENLGTGGDLLRLAGQEFGTTTGRPRRCGWLDIVALKFSCQINGFASLNLTKLDVLSDLNEIQLGVAYKRSDGTPVKSFPGDLRLLEELHVEYEVLPGWKSDISSVRNYSDLPKAAQQYVERIEELVGVPIHYIGIGPGRDALIYK | soluble
SWKFSRYVRTQMQELEPWQLKQALKTHQGVLQATYEGLVAINSEGSLYLINDSARAMLNYHQELGNVFTDGIDNPESFSLKGDDYINGLIRVNGKNLVMNRVTLRTSTGEPYGAVFSLRDQNEMHVLSEKISQVTQYMENMRVARHEYQNKLSTISGLLQMGAYDKALSVCLSQAKASQSQLDSLHALNSRPALSALILAKASKANELGVALSIDCQSDLSALSRRLSEEQLCGLIGNLAQNALEAVKGQENGHVHIGISESACEYTIQVSNNGPLLESEFDVLCELGFTTKQNKADHGVGMYLVRSIVEQGNGHMELDSDEQETAFTIYFPKELG | not soluble
SWKRNKFRLTYVAEAPDLTQGLSNVHKKRVSAARLLSRQNLQSPKSSRSTIFVRLHTNGNQELQYQPGDHLGVFPGNHEDLVNALIERLEDAPPANHVVKVEMLEERNTALGVISNWKDESRLPPCTIFQAFKYYLDITTPPTPLQLQQFASLATNEKEKQRLLVLSKGLQEYEEWKWGKNPTMVEVLEEFPSIQMPATLLLTQLSLLQPRYYSISSSPDMYPDEVHLTVAIVSYHTRDGEGPVHHGVCSSWLNRIQADDVVPCFVRGAPSFHLPRNPQVPCILVGPGTGIAPFRSFWQQRQFDIQHKGMNPCPMVLVFGCRQSKIDHIYREETLQAKNKGVFRELYTAYSREPDRPKKYVQDVLQEQLAESVYRALKEQGGHIYVCGDVTMAADVLKAIQRIMTQQGKLSEEDAGVFISRLRDDNRYHEDIFGV | soluble
SWQTYVDTNLVGTGAVTQAAILGLDGNTWATSAGFAVTPAQGQTLASAFNNADPIRASGFDLAGVHYVTLRADDRSIYGKKGSAGVITVKTSKSILVGVYNEKIQPGTAANVVEKLADYLIGQGF | soluble
TALSVLDLVMIGEGKTFADAIEESRQLARHVEQQHYSRYWIAEHHDMPGIGSAATSLVINEIANATRHIRVGAGGIMLPNHAPLVVAEQFGTLNTLHPGRIDLGLGRAPGTSGPTVRALRGAAPERDFGQDIAELRDYLADNGKRRVRGVPGAHDVPVWILGSSLFGADLAAKLGLPYAFASHFAPRYLLQAIAHYRANFQPSAQLAKPYVMVGMNLFAAASDAEADYLASSHRKWMLDLHVGRFGLLPKPQEGYLERLPDHERAVLDQVMACSVAGGPERVREGLRSLIEQTGADELMIDCRIHDPLARQRSHAYAAQ | not soluble
TDAQKRRRAVGHALAYAGYAEIIPSPFMDPEVFDVWGLAADDERRKTVSVLNPLEAERNVLSTSLLPSMLDAVKRNVARGHNDFSLFGLQQVAFEHGSGVSPMPSVASRPEESVVAELVDSLPNQPLHVATVGTGNIEFEGPWGKGRAYTFADAIESARAVARAAGVTLELANADALPWHPGRCAALLIDGTPVGYAGELHPQILEKAGLPARTCAMELDLSALP | not soluble
TDQAAFDTNIVTLTRFVMEEGRKARGTGEMTQLLNSLCTAVKAISTAVRKAGIAHLWGIAGSTNVTGDQVKKLDVLSNDLVINVLKSSFATCVLVSEEDKNAIIVEPEKRGKYVVCFDPLDGSSNIDCLVSIGTIFGIYRKNSTDEPSEKDALQPGRNLVAAGYALYGSATMLVLAMVNGVNCFMLDPAIGEFILVDRDVKIKKKGSIYSINEGYAKEFDPAITEYIQRKKFPPDNSAPYGARYVGSMVADVHRTLVYGGIFMYPANKKSPKGKLRLLYECNPMAYVMEKAGGLATTGKEAVLDIVPTDIHQRAPIILGSPEDVTELLEIYQKHAAK | soluble
TGILLANLGTPDAPTPEAVKRYLKQFLSDRRVVDTSRLLWWPLLRGVILPLRSPRVAKLYASVWMEDGSPLMVYSRQQQQALAQRLPDTPVALGMSYGSPSLESSVDELLAEHVDHIVVLPLYPQFSCSTVGAVWDELARILARKRSIPGISFIRDYADNHDYINALANSVRASFAKHGEPDLLLLSYHGIPQRYADEGDDYPQRCRTTTRELASALGMVPEKVMMTFQSRFGREPWLMPYTDETLKMLGEKGVGHIQVMCPGFAADCLETLEEIAEQNREVFLGAGGKKYEYIPALNATPEHIEMMANLV | not soluble
TGQIGTKGTVLFCNPTETEQYLKCNVEMFVQGASSANDFKKGYTFDLYNSNGEELGVKFGDMISSSSFHLKAFYRDPTHTRDQAGYRFWKSLAETLDYPYCKINNSVYAQSTTRSDKAEFTFDAKYYPHGFPVEIYLNDTFHGLYTLRLKKTRENYTLNNADLNHIFLDNAEYRARLNTSFNYAQWEIKSPKMKGYSDQGPIPATFPTVQAAIDNLFNFTKGLSANYANHATVLNLPHWVLFYILAELTGHWDIDGNNYNIFTWDGVHWSILPYDMDLTLNWYRNSGATQTGFLINVDIWQTFRTVYSNEIKAMWTKFRNEKSLTTEKVVNTYRNVAKDIPREVYVADKAKWGLATDFTGNDYPNIEQIYRYITARIAYL | not soluble
TGVSSFQEILDKGMVFVNRNKGSGTRDLIEELIGNNESIRKNMKGYLWETNTEAGVARAVEQGRADAGITLEYYAIKLGLKYTHINKENYDILISKEFYDSEYGQAFIKNLKGLKDRIKNYPGYSVPDDI | not soluble
TIVKSEIIRKLMDAKKFLLDGYIDEGVKIVLEITKSSTKSEYNWFICNLLESIDCRYMFQVLDKIGSYFDLDKCQNLKSVVECGVINNTLNEHVNKALDILVIQGKRDKLEEIGREILKNNEVSASILVAIANALRRVGDERDATTLLIEACKKGEKEACNAVNTLTVRSVM | soluble
TLTKHEQDILLKELGPHVDTPAHIVETGLGAYHALFTAHPQYISHFSRLEGHTIENVMQSEGIKHYARTLTEAIVHMLKEISNDAEVKKIAAQYGKDHTSRKVTKDEFMSGEPIFTKYFQNLVKDAEGKAAVEKFLKHVFPMMAAEI | soluble
TLWPREVEGGQGKPSHGCRAASKARLEAKPANSPFPSHPSLAHITQFRMMVSLGHLAKGASLDDLIDSCIQSFDADGNLCRSNQLLQVMLTMHRIVISSAELLQKVITLYKDALAKNSPGLCLKICYFVRYWITEFWVMFKMDASLTDTMEEFQELVKAKGEELHCRLIDTTQINARDWSRKLTQRIKSNTSKKRKVSLLFDHLEPEELSEHLTYLEFKSFRRISFSDYQNYLVNSCVKENPTMERSIALCNGISQWVQLMVLSRPTPQLRAEVFIKFIQVAQKLHQLQNFNTLMAVIGGLCHSSISRLKETSSHVPHEINKVLGEMTELLSSSRNYDNYRRAYGECTDFKIPILGVHLKDLISLYEAMPDYLEDGKVNVHKLLALYNHISELVQLQEVAPPLEANKDLVHLLTLSLDLYYTEDEIYELSYAREPRNHRAPPLTPSKPPVVVDWASGVSPKPDPKTISKHVQRMVDSVFKNYDHDQDGYISQEEFEKIAASFPFSFCVMDKDREGLISRDEITAYFMRASSIYSKLGLGFPHNFQETTYLKPTFCDNCAGFLWGVIKQGYRCKDCGMNCHKQCKDLVVFECKKRAKNPVAPTENNTSVGPVSNLCSLGAKDLLHAPEEGPFTFPNGEAVEHGEESKDRTIMLMGVSSQKISLRLKRAVAHKATQTESQPWIGSEGPSGPFVLSSPRKTAQDTLYVLPSPTSPCPSPVLVRKRAFVKWENKDSLIKSKEELRHLRLPTYQELEQEINTLKADNDALKIQLKYAQKKIESLQLEKSNHVLAQMEQGDCS | soluble
TSKATIRDLNDPSQVKTLQEKASKGAGTVVAVIDAGFDKNHEAWRLTDKTKARYQSKEDLEKAKKEHGITYGEWVNDKVAYYHDYSKDGKTAVDQEHGTHVSGILSGNAPSETKEPYRLEGAMPEAQLLLMRVEIVNGLADYARNYAQAIRDAVNLGAKVINMSFGNAALAYANLPDETKKAFDYAKSKGVSIVTSAGNDSSFGGKTRLPLADHPDYGVVGTPAAADSTLTVASYSPDKQLTETATVKTDDHQAKEMPVLSTNRFEPNKAYDYAYANRGMKEDDFKDVKGKIALIERGDIDFKDKIANAKKAGAVGVLIYDNQDKGFPIELPNVDQMPAAFISRKDGLLLKDNSKKTITFNATPKVLPTASDTKLSRFSSWGLTADGNIKPDIAAPGQDILSSVANNKYAKLSGTSMSAPLVAGIMGLLQKQYETQYPDMTPSERLDLAKKVLMSSATALYDEDEKAYFSPRQQGAGAVDAKKASAATMYVTDKDNTSSKVHLNNVSDKFEVTVTVHNKSDKPQELYYQATVQTDKVDGKHFALAPKALYETSWQKITIPANSSKQVTVPIDASRFSKDLLAQMKNGYFLEGFVRFKQDPKKEELMSIPYIGFRGDFGNLSALEKPIYDSKDGSSYYHEANSDAKDQLDGDGLQFYALKNNFTALTTESNPWTIIKAVKEGVENIEDIESSEITETIFAGTFAKQDDDSHYYIHRHANGKPYAAISPNGDGNRDYVQFQGTFLRNAKNLVAEVLDKEGNVVWTSEVTEQVVKNYNNDLASTLGSTRFEKTRWDGKDKDGKVVVNGTYTYRVRYTPISSGAKEQHTDFDVIVDNTTPEVATSATFSTEDRRLTLASKPKTSQPIYRERIAYTYMDEDLPTTEYISPNEDGTFTLPEEAETMEGGTVPLKMSDFTYVVEDMAGNITYTPVTKLLEGHS | soluble
TSKCTIIPGSGFRNDEGKYEIIADKCIEADYPQKDEVAAAAYMNKYVEEVILRAPEQWMWLHKRYKTMQDENEPKGIRYK | not soluble
